The record followed here is patent US10618964B2, “Nanobody against IL-6R” (Ablynx N.V., dated 2020).

Positions count from the first letter of the chain named.

First the molecules themselves.
B1: IL6RPMP106D6 (VHH)
VHH: EVQLVESGGGLVQAGGSLRLSCAASGFTFDDYAIGWFRQAPGKEREGVSCMISSDGSTYYADSVKGRFTISSDNAKNTVYLQMDSLKPEDTAVYYCAADLSLYGCYVGDRDLYDYDYWGQGTQVTVSS
B2: IL6RPMP103A5 (VHH)
VHH: EVQLVESGGGLVQAGDSLRLSCVASGLPFSTLHMGWFRQAPGKEHESVSAISSDGGSEYYAGSVKGRFTISRDNAKNTVYLQMNSLKPEDTAVYYCAADPRRIGANIKYSDYWGQGTQVTVSS
B3: IL6RPMP103B2 (VHH)
VHH: EVQLVESGGGLVQPGGSLRLSCAASGSTFSINMMAWYCQAPGKQRELVASISSGGGINYADSVKGRFTISRDYAENSVDLQMNSLKPEDTAVYYCNARGTYLNGDHYSTNYNSWGQGTQVTVSS
B4: IL6RPMP101G1 (VHH)
VHH: EVQLVESGGGLVQPGGSLRLSCAASGGTLDYYAIGWFRQAPGKEREGVSCISSSDGSTYYASSVKGRFTVSRDKAKNTVYLQMNSLKPEDTAVYYCAFVFTTAQAMGVPNNPYEYDFWGQGTQVTVSS
B5: IL6RPMP100D11 (VHH)
VHH: EVQLVESGGGLVQAGDSLRLSCLASGRSFKDDAMGWFRQAPGKEREFVSGIDWRGNIVDAESVKGRFTISRENAKNTLYLQMNHLKPEDTAVYYCAASSVFSDLRYRKNPKYWGQGTQVTVSS
B6: IL6RPMP104E7 (VHH)
VHH: EVQLVESGGGLVQAGGSLRLSCAAGGSIFSINAMGWYRQAPGKQRELVASITSGGSTTYADSVKGRFTISRDNAKDTVYLQMNSLKPEDTAVYYCNAHIRFPFPNDYWGQGTQVTVSS
B7: IL6RPMP120C10 (VHH)
VHH: EVQLVESGGGLVQAGGSLSLSCATSGRTISDDTMAWFRQAPGKEREFVAIITFNGARTHYSDSVRDRFTISRDNAKNTVYLQMNSLKSEDTAVYYCAASTKYYSSTYNYIHPAFYDIWGQGTQVTVSS
B8: IL6RPMP103A4 (VHH)
VHH: EVQLVESGGGLVQPGGSLRLSCAASGSIFSINTMGWYRQVPGKQRELVATVRSGSITNYADSVQDRFTITRDIDENTVYLQMNSLKPEDTAVYYCLTRASVPGRGYQDYWGQGTQVTVSS
B9: IL6RPMP103A2 (VHH)
VHH: B8 VHH with R66Q
B10: IL6RPMP104E4 (VHH)
VHH: EVQLVESGGGTVQAGGSLKLSCAASGRTFTNYAMGWFRQAPGKEREFVAAIAYATHFADSVKGRFTISRGNAKNTVYLQMNSLKPEDTAVYYCAADLSLSKMVSKITSDMDYWGKGTLVTVSS
B11: IL6RPMP101A5 (VHH)
VHH: EVQLVESGGGLVQAGGSLRLSCTASGRTFSDYDMGWFRQAPGKERECVAIIDTNGDNTLIVGSVKGRFAISSDNAKNTVYLQMNSLLPEDTAVYTCAAGVWSSLRHTAANYWGQGTQVTVSS
B12: IL6RPMP101G3 (VHH)
VHH: B11 VHH
B13: IL6RPMP108C10 (VHH)
VHH: B11 VHH with A14P, I50V, I60T, S72R, V100A, H106S
B14: IL6RPMP101C2 (VHH)
VHH: B11 VHH
B15: IL6RPMP101A3 (VHH)
VHH: B11 VHH with S17P, S30T, C47V, I60T, V100A, S103A, H106R, T107S, A108V
B16: IL6RPMP108F7 (VHH)
VHH: B11 VHH with I50V, I60T, S72R, V100A, H106S
B17: IL6RPMP104A8 (VHH)
VHH: B11 VHH with C47F, I50V, D56G, N57H, I60T, L87V, V100A, H106K, N110S
B18: IL6RPMP101B2 (VHH)
VHH: B11 VHH with S30T, C47V, I60T, V100A, S103A, H106R, T107S, A108V
B19: IL6RPMP104B9 (VHH)
VHH: B11 VHH
B20: IL6RPMP101D6 (VHH)
VHH: B11 VHH
B21: IL6RPMP101G11 (VHH)
VHH: EVQLVESGGGLVQPGGSLRLSCAASASGFTLDYYAIGWFRQAPGKEREGVSCISSTDGSTYYADSVKGRFTISRDNAKNTVYLQMNSLNPEDTGVYTCAAVLTTAQAMGVPTRSYEYDYWGQGTQVTVSS
B22: IL6RPMP102G3 (VHH)
VHH: EVQLVESGGGLVQAGGSLRLSCAASGSIDRINAMGWYRQAPGKQRDFLAVITDGDKTLYADSVKGRFTISNDNAKNTVYLQMNSLKPEDTAVYYCNAYQAGWGDYWGQGTQVTVSS
B23: IL6RPMP101F6 (VHH)
VHH: EVQLVESGGGLVQAGGSLRLSCAASGSIFSIKAMGWYRQAPGKQRELVARITSGGSTYYADSVKGRFTISRDNAKNTVYLQMNSLKPEDTAVFYCNAIVTDSDYDLGNDYWGQGTQVTVSS
B24: IL6RPMP107B4 (VHH)
VHH: EVQLVESGGGLVQAGGSLRLSCVASGLRLNMHRMGWFRQAPGKEREFVARIFTDDGDSYYADSVQGRFTISGDNAKNTVYLQMNSLKPEDTGVYFCAAGYMSGAESPIGYDNWGQGTQVTVSS

One assay concerns the target soluble IL-6R in cynomolgous plasma (cynomolgus monkey, UniProt A0A2K5WN54). As to the kind of experiment: ELISA 2, periplasmic extract; competitor IL-6; cyno plasma. The procedure:
(§1) In this ELISA, plasma was used as a source of native soluble IL-6R. By this assay, we aimed to confirm the alphascreen results and to get a view on the cross-reactivity of the clones towards cynomolgous IL-6R. Human plasma (ELISA 1 and ELISA 3) or cynomolgous plasma (ELISA 2) were pre-incubated with a dilution of the periplasmic extract of the clones together with human IL-6 (50 ng/mL). Subsequently, plasma soluble IL-6R was captured on a B-N12 coated plate and bound IL-6 was detected using anti-IL-6 antibody BAF206 and streptavidin-HRP (ELISA 1 and ELISA 2). The ELISA signal dropped when the Nanobody clone could compete with IL-6 for binding to soluble IL-6R. ELISA 3 was a parallel ELISA in which the detection antibody was replaced by anti-IL-6R antibody BAF227 to exclude false positive competitors, which actually compete with B-N12 (e.g. family 2). Depicted in Table C-5 is the ratio of the OD450 value of the test sample versus the blank OD450 (mock sample). Clones were ordered based on ELISA 1 data.
In the case of B1, the OD450 ratio sample/blank stood at 1.13.

In the case of B2, the OD450 ratio sample/blank stood at 0.859.

On to B3, for which the OD450 ratio sample/blank amounted to 0.81.

In the case of B4, the OD450 ratio sample/blank stood at 0.0937.

For B5, the OD450 ratio sample/blank was 0.962.

With B6, the OD450 ratio sample/blank came to 0.993.

For the molecule B7, the OD450 ratio sample/blank is 0.0351.

On to B8, for which the OD450 ratio sample/blank turned out to be 0.916.

On to B9, for which the OD450 ratio sample/blank came out at 1.09.

Consider B10, for which the OD450 ratio sample/blank stood at 0.838.

Consider B11, for which the OD450 ratio sample/blank amounted to 0.736.

With B12, the OD450 ratio sample/blank came out at 0.773.

Turning to B13, the OD450 ratio sample/blank amounted to 0.795.

Consider B14, for which the OD450 ratio sample/blank was determined as 1.03.

Take B15: the OD450 ratio sample/blank stood at 0.687.

Regarding B16, the OD450 ratio sample/blank was 0.8.

As for B17, the OD450 ratio sample/blank came to 0.725.

In the case of B18, the OD450 ratio sample/blank came out at 0.727.

In the case of B19, the OD450 ratio sample/blank is 0.766.

Regarding B20, the OD450 ratio sample/blank is 0.731.

As for B21, the OD450 ratio sample/blank stood at 0.0538.

On to B22, for which the OD450 ratio sample/blank turned out to be 1.32.

Regarding B23, the OD450 ratio sample/blank was determined as 0.0273.

For B24, the OD450 ratio sample/blank came to 0.918.

The target in the next assay is T1, native soluble IL-6R in human plasma (human, UniProt P08887). As to the kind of experiment: ELISA 1, periplasmic extract; competitor IL-6; human plasma. The procedure:
as §1
Consider B1, for which the OD450 ratio sample/blank is 1.27.

Turning to B2, the OD450 ratio sample/blank came to 2.12.

As for B3, the OD450 ratio sample/blank came to 1.76.

Turning to B4, the OD450 ratio sample/blank turned out to be 0.148.

B5: the OD450 ratio sample/blank turned out to be 1.9.

For B6, the OD450 ratio sample/blank was 2.04.

As to B7, the OD450 ratio sample/blank came to 0.139.

B8: the OD450 ratio sample/blank was determined as 1.04.

For B9, the OD450 ratio sample/blank came out at 2.04.

Regarding B10, the OD450 ratio sample/blank came out at 1.34.

Take B11: the OD450 ratio sample/blank was 1.03.

Turning to B12, the OD450 ratio sample/blank came to 1.08.

As for B13, the OD450 ratio sample/blank came to 1.07.

Regarding B14, the OD450 ratio sample/blank came to 1.04.

Turning to B15, the OD450 ratio sample/blank was 1.08.

On to B16, for which the OD450 ratio sample/blank was 1.05.

Take B17: the OD450 ratio sample/blank turned out to be 2.04.

On to B18, for which the OD450 ratio sample/blank stood at 1.09.

On to B19, for which the OD450 ratio sample/blank was 2.06.

With B20, the OD450 ratio sample/blank is 1.09.

Consider B21, for which the OD450 ratio sample/blank stood at 0.227.

As for B22, the OD450 ratio sample/blank is 1.76.

With B23, the OD450 ratio sample/blank was determined as 0.0703.

As for B24, the OD450 ratio sample/blank stood at 1.2.

A further assay deals with T1, native soluble IL-6R in human plasma. Put plainly: ELISA 3, periplasmic extract; competitor BN-12; human plasma. The procedure:
as §1
(In an ELISA, binding on a coated surface is turned into a signal by an enzyme label.)
For B1, the OD450 ratio sample/blank is 1.

Regarding B2, the OD450 ratio sample/blank is 0.943.

In the case of B3, the OD450 ratio sample/blank was 1.02.

Turning to B4, the OD450 ratio sample/blank worked out at 0.639.

As for B5, the OD450 ratio sample/blank worked out at 0.969.

As to B6, the OD450 ratio sample/blank came to 1.01.

Regarding B7, the OD450 ratio sample/blank is 1.01.

In the case of B8, the OD450 ratio sample/blank was 1.03.

B9: the OD450 ratio sample/blank came out at 0.993.

For B10, the OD450 ratio sample/blank is 1.03.

For the molecule B11, the OD450 ratio sample/blank came out at 0.95.

Take B12: the OD450 ratio sample/blank turned out to be 0.892.

Take B13: the OD450 ratio sample/blank came to 1.04.

On to B14, for which the OD450 ratio sample/blank was determined as 0.952.

As to B15, the OD450 ratio sample/blank was found to be 0.946.

Take B16: the OD450 ratio sample/blank was 1.02.

As to B17, the OD450 ratio sample/blank turned out to be 0.973.

For the molecule B18, the OD450 ratio sample/blank came out at 0.909.

As to B19, the OD450 ratio sample/blank amounted to 1.

B20: the OD450 ratio sample/blank is 0.948.

Consider B21, for which the OD450 ratio sample/blank turned out to be 0.468.

On to B22, for which the OD450 ratio sample/blank came to 0.968.

B23: the OD450 ratio sample/blank stood at 0.947.

B24: the OD450 ratio sample/blank amounted to 1.04.
